From patent US8637016

Target: EphA3 antigen (Homo sapiens (Human)) (UniProt P29320)
Assay: ELISA on EphA3 antigen

UniProt P29320, sequence (P29320 21-541 limits assumed, form in doubt): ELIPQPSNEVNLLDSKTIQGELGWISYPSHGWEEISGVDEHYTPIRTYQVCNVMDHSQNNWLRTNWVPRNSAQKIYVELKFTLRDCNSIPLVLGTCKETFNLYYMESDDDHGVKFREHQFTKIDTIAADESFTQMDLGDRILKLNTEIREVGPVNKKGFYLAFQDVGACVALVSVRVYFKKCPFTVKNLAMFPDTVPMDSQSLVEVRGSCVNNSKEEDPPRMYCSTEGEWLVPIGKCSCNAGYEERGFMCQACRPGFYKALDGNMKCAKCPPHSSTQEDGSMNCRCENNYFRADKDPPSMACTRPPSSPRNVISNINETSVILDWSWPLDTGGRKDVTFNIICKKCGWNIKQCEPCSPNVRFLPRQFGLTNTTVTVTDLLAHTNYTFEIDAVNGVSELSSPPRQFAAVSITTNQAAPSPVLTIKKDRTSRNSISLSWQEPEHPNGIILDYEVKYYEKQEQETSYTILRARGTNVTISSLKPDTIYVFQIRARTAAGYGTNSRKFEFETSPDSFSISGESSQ

AFFINITY: 2.5 nM
Substance: monoclonal antibody IIIA4
